Measurements reported in publication PMC10397247.

Tests used:
4H134-AA = target: T1, 4H134-AA; assay: two-hybrid library CCmax;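 note: natural log of median RNA to DNA barcode read ratio; higher means stronger binding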
T1 chain: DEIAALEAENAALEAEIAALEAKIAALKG

4H1350-AA = target: T2, 4H1350-AA; assay: two-hybrid library CCmax; settings: mean of both orientations;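 note: natural log of median RNA to DNA barcode read ratio; higher means stronger binding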
T2 chain: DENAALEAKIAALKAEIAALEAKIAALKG

4H1385-AA = target: T3, 4H1385-AA; assay: two-hybrid library CCmax; settings: mean of both orientations;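 note: natural log of median RNA to DNA barcode read ratio; higher means stronger binding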
T3 chain: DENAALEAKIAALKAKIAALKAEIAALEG

4H1392-AA = target: T4, 4H1392-AA; assay: two-hybrid library CCmax; settings: mean of both orientations;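 note: natural log of median RNA to DNA barcode read ratio; higher means stronger binding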
T4 chain: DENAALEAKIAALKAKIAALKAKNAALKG

4H2622-AA = target: T5, 4H2622-AA; assay: two-hybrid library CCmax; settings: mean of both orientations;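 note: natural log of median RNA to DNA barcode read ratio; higher means stronger binding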
T5 chain: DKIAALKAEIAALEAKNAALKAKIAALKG

4H2705-AA = target: T6, 4H2705-AA; assay: two-hybrid library CCmax; settings: mean of both orientations;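 note: natural log of median RNA to DNA barcode read ratio; higher means stronger binding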
T6 chain: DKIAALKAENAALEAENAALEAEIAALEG

4H2736-AA = target: T7, 4H2736-AA; assay: two-hybrid library CCmax; settings: mean of both orientations
T7 chain: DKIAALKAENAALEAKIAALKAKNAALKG

4H2888-AA = target: T8, 4H2888-AA; assay: two-hybrid library CCmax; settings: mean of both orientations
T8 chain: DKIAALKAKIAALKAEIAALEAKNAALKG

4H3049-AA = target: T9, 4H3049-AA; assay: two-hybrid library CCmax; settings: mean of both orientations
T9 chain: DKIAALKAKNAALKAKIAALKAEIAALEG

4H337-AA = target: T10, 4H337-AA; assay: two-hybrid library CCmax; settings: mean of both orientations
T10 chain: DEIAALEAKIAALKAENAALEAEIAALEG

4H3587-AA = target: T11, 4H3587-AA; assay: two-hybrid library CCmax; settings: mean of both orientations
T11 chain: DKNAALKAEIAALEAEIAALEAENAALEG

4H3590-AA = target: T12, 4H3590-AA; assay: two-hybrid library CCmax; settings: mean of both orientations
T12 chain: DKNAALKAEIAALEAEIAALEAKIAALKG

4H3625-AA = target: T13, 4H3625-AA; assay: two-hybrid library CCmax; settings: mean of both orientations
T13 chain: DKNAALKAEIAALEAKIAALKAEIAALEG

4H384-AA = target: T14, 4H384-AA; assay: two-hybrid library CCmax; settings: mean of both orientations
T14 chain: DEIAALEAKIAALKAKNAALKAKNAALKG

4H3905-AA = target: T15, 4H3905-AA; assay: two-hybrid library CCmax; settings: mean of both orientations
T15 chain: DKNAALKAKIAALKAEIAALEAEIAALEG

4H4038-AA = target: T16, 4H4038-AA; assay: two-hybrid library CCmax; settings: mean of both orientations
T16 chain: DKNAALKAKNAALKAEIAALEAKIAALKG

4H43-AA = target: T17, 4H43-AA; assay: two-hybrid library CCmax; settings: mean of both orientations
T17 chain: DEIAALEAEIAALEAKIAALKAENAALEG

4H451-AA = target: T18, 4H451-AA; assay: two-hybrid library CCmax; settings: mean of both orientations
T18 chain: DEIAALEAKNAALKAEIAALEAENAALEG

4H510-AA = target: T19, 4H510-AA; assay: two-hybrid library CCmax; settings: mean of both orientations
T19 chain: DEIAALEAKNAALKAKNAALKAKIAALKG

4H_APH = target: T20, 4H_APH; assay: two-hybrid library CCmax; settings: mean of both orientations
T20 chain: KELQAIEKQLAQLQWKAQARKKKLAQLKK

4H_BCR = target: T21, 4H_BCR; assay: two-hybrid library CCmax
T21 chain: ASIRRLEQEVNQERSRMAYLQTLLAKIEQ

4H_GCN4 = assay: two-hybrid library CCmax
Chain of 4H_GCN4 (chain, as listed by the source): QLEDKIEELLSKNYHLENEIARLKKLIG

GCN2_T = assay: two-hybrid library CCmax; settings: mean of both orientations
O11-AA = target: T22, O11-AA; assay: two-hybrid library CCmax; settings: mean of both orientations
T22 chain: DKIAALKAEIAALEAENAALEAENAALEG

O13-AA = target: T23, O13-AA; assay: two-hybrid library CCmax; settings: mean of both orientations
T23 chain: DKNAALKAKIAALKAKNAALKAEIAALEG

O14-AA = target: T24, O14-AA; assay: two-hybrid library CCmax; settings: mean of both orientations
T24 chain: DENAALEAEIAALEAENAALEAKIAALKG

4H491-bH = target: T25, 4H491-bH; assay: two-hybrid library CCNG1
T25 chain: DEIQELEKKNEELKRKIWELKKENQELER

P11A-bA = target: T26, P11A-bA; assay: two-hybrid library CCNG1
T26 chain: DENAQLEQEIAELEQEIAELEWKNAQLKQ

4H1103-AA = target: T27, 4H1103-AA; assay: two-hybrid library CCmax
T27 chain: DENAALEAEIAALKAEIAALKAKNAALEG

4H1198-AA = target: T28, 4H1198-AA; assay: two-hybrid library CCmax; settings: mean of both orientations
T28 chain: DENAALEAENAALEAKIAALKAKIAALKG

4H1405-AA = target: T29, 4H1405-AA; assay: two-hybrid library CCmax; settings: mean of both orientations
T29 chain: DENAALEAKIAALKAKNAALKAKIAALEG

4H2211-AA = target: T30, 4H2211-AA; assay: two-hybrid library CCmax
T30 chain: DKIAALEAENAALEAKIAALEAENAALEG

4H2238-AA = target: T31, 4H2238-AA; assay: two-hybrid library CCmax; settings: mean of both orientations
T31 chain: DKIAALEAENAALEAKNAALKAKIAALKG

4H2513-AA = target: T32, 4H2513-AA; assay: two-hybrid library CCmax; settings: mean of both orientations
T32 chain: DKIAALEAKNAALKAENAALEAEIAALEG

4H2536-AA = target: T33, 4H2536-AA; assay: two-hybrid library CCmax; settings: mean of both orientations
T33 chain: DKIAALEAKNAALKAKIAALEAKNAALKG

4H2608-AA = target: T34, 4H2608-AA; assay: two-hybrid library CCmax; settings: mean of both orientations
T34 chain: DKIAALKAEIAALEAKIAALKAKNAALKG

4H2614-AA = target: T35, 4H2614-AA; assay: two-hybrid library CCmax; settings: mean of both orientations
T35 chain: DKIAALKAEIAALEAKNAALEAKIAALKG

4H2726-AA = target: T36, 4H2726-AA; assay: two-hybrid library CCmax; settings: mean of both orientations
T36 chain: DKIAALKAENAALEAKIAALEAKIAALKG

4H2935-AA = target: T37, 4H2935-AA; assay: two-hybrid library CCmax; settings: mean of both orientations
T37 chain: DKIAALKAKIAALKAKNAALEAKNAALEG

4H327-AA = target: T38, 4H327-AA; assay: two-hybrid library CCmax
T38 chain: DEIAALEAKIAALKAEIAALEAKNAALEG

4H3605-AA = target: T39, 4H3605-AA; assay: two-hybrid library CCmax; settings: mean of both orientations
T39 chain: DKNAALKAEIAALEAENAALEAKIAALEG

4H3664-AA = target: T40, 4H3664-AA; assay: two-hybrid library CCmax; settings: mean of both orientations
T40 chain: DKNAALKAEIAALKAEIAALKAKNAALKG

4H369-AA = target: T41, 4H369-AA; assay: two-hybrid library CCmax; settings: mean of both orientations
T41 chain: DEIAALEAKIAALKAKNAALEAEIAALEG

4H3922-AA = target: T42, 4H3922-AA; assay: two-hybrid library CCmax; settings: mean of both orientations
T42 chain: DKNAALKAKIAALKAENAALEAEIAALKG

4H4033-AA = target: T43, 4H4033-AA; assay: two-hybrid library CCmax; settings: mean of both orientations
T43 chain: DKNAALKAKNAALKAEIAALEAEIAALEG

4H481-AA = target: T44, 4H481-AA; assay: two-hybrid library CCmax; settings: mean of both orientations
T44 chain: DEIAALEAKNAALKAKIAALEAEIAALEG

4H55-AA = target: T45, 4H55-AA; assay: two-hybrid library CCmax; settings: mean of both orientations
T45 chain: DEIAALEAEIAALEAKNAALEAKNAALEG

4H662-AA = target: T46, 4H662-AA; assay: two-hybrid library CCmax; settings: mean of both orientations
T46 chain: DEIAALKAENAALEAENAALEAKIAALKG

O11 = target: T47, O11; assay: two-hybrid library CC0; settings: mean of both orientations
T47 chain: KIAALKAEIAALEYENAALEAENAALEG

O12 = target: T48, O12; assay: two-hybrid library CC0; settings: mean of both orientations
T48 chain: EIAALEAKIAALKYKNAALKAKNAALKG

O13 = target: T49, O13; assay: two-hybrid library CC0; settings: mean of both orientations
T49 chain: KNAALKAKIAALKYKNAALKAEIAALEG

O14 = target: T50, O14; assay: two-hybrid library CC0; settings: mean of both orientations
T50 chain: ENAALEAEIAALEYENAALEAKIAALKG

O15 = target: T51, O15; assay: two-hybrid library CC0; settings: mean of both orientations
T51 chain: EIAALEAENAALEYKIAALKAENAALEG

O16 = target: T52, O16; assay: two-hybrid library CC0; settings: mean of both orientations
T52 chain: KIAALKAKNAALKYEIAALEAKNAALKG

O2 = target: T53, O2; assay: two-hybrid library CC0; settings: mean of both orientations
T53 chain: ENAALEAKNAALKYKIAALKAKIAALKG

O3 = target: T54, O3; assay: two-hybrid library CC0; settings: mean of both orientations
T54 chain: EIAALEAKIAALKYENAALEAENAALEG

O4 = target: T55, O4; assay: two-hybrid library CC0; settings: mean of both orientations
T55 chain: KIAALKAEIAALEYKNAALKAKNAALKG

O5 = target: T56, O5; assay: two-hybrid library CC0; settings: mean of both orientations
T56 chain: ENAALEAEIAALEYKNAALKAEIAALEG

O6 = target: T57, O6; assay: two-hybrid library CC0; settings: mean of both orientations
T57 chain: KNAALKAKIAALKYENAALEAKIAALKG

O7 = target: T58, O7; assay: two-hybrid library CC0; settings: mean of both orientations
T58 chain: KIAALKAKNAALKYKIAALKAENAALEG

O8 = target: T59, O8; assay: two-hybrid library CC0; settings: mean of both orientations
T59 chain: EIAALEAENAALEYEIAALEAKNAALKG

O9 = target: T60, O9; assay: two-hybrid library CC0; settings: mean of both orientations
T60 chain: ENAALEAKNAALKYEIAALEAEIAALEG

Question: What does the source list for DEIAALEAENAALEAEIAALEAKIAALKG [4H134-AA]?
Answer: interaction score (4H134-AA): -0.374; interaction score (4H1350-AA): 0.48; interaction score (4H1385-AA): 2.21; interaction score (4H1392-AA): 0.139; interaction score (4H2622-AA): 2.38; interaction score (4H2705-AA): -0.938; interaction score (4H2736-AA): 0.536; interaction score (4H2888-AA): 2.4; interaction score (4H3049-AA): 1.84; interaction score (4H337-AA): 0.273; interaction score (4H3587-AA): 0.794; interaction score (4H3590-AA): 0.654; interaction score (4H3625-AA): 1.5; interaction score (4H384-AA): 2.04; interaction score (4H3905-AA): 1.17; interaction score (4H4038-AA): 2; interaction score (4H43-AA): -0.679; interaction score (4H451-AA): 0.937; interaction score (4H510-AA): 1.96; interaction score (4H_APH): 1.96; interaction score (4H_BCR): -0.839; interaction score (4H_GCN4): 1.94; interaction score (GCN2_T): 0.268; interaction score (O11-AA): -1.36; interaction score (O13-AA): 2.02; interaction score (O14-AA): -0.533

Question: Which results are given for DEIQELEKKNEELKRKIWELKKENQELER [4H491-bH]?
Answer: interaction score (4H491-bH): -1.32; interaction score (P11A-bA): 0.405

Question: Which results are given for DENAALEAEIAALKAEIAALKAKNAALEG [4H1103-AA]?
Answer: interaction score (4H1103-AA): 1.1; interaction score (4H1198-AA): -1.33; interaction score (4H1350-AA): -0.275; interaction score (4H1405-AA): -1.89; interaction score (4H2211-AA): -1.7; interaction score (4H2238-AA): -1.65; interaction score (4H2513-AA): -1.55; interaction score (4H2536-AA): -1.47; interaction score (4H2608-AA): 0.0702; interaction score (4H2614-AA): -1.01; interaction score (4H2726-AA): -1.04; interaction score (4H2935-AA): -1.16; interaction score (4H327-AA): -0.714; interaction score (4H3605-AA): -1.61; interaction score (4H3625-AA): -0.923; interaction score (4H3664-AA): 2.17; interaction score (4H369-AA): -1.5; interaction score (4H3922-AA): -1.44; interaction score (4H4033-AA): 0.386; interaction score (4H481-AA): -0.163; interaction score (4H55-AA): -1.09; interaction score (4H662-AA): -1.27

Question: For KIAALKAEIAALEYENAALEAENAALEG [O11], which interaction score (O11) is on record?
Answer: -2.72

Question: And the interaction score (O12)?
Answer: 0.932

Question: What about the interaction score (O13) of the same binder?
Answer: -2.75

Question: What about the interaction score (O14) of the same binder?
Answer: -2.7

Question: What about the interaction score (O15) of the same binder?
Answer: -2.79

Question: And the interaction score (O16)?
Answer: -2.66

Question: What about the interaction score (O2) of the same binder?
Answer: -2.53

Question: What about the interaction score (O3) of the same binder?
Answer: -2.55

Question: What about the interaction score (O4) of the same binder?
Answer: 0.197

Question: What about the interaction score (O5) of the same binder?
Answer: -2.71

Question: And the interaction score (O6)?
Answer: -2.64

Question: What about the interaction score (O7) of the same binder?
Answer: -2.69

Question: What about the interaction score (O8) of the same binder?
Answer: -2.61

Question: And the interaction score (O9)?
Answer: -2.79
